The experiment deals with human CD123 (human, UniProt P26951 19-378). The experiment can be described thus: cell-based or functional assay.

We go through 1 molecule from patent US20240228618A1 (Janssen / Centocor, published 2024).

Chain of human CD123 (P26951 19-378): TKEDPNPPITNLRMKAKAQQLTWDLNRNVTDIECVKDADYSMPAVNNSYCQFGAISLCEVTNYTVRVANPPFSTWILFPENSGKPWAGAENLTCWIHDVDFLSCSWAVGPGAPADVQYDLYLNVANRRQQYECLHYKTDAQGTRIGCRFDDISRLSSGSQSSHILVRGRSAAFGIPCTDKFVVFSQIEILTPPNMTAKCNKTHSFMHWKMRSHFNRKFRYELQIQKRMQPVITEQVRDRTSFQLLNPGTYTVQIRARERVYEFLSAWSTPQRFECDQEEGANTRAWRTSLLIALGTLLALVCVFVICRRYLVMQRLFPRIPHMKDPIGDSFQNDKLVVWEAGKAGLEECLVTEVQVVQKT

B1: CD123×CD3 bispecific antibody (bispecific antibody, human IgG4 S228P, kappa, lambda, F234A L235A)
heavy 1: not shown
light 1: EIVLTQSPGTLSLSPGERATLSCRASQSVSSSYLAWYQQKPGQAPRLLIYGASSRATGIPDRFSGSGSGTDFTLTISRLEPEDFAVYYCQQDYGFPWTFGQGTKVEIKRTVAAPSVFIFPPSDEQLKSGTASVVCLLNNFYPREAKVQWKVDNALQSGNSQESVTEQDSKDSTYSLSSTLTLSKADYEKHKVYACEVTHQGLSSPVTKSFNRGEC
heavy 2: EVQLVESGGGLVQPGGSLKLSCAASGFTFNTYAMNWVRQASGKGLEWVGRIRSKYNAYATYYAASVKGRFTISRDDSKNTAYLQMNSLKTEDTAVYYCTRHGNFGNSYVSWFAYWGQGTLVTVSSASTKGPSVFPLAPCSRSTSESTAALGCLVKDYFPEPVTVSWNSGALTSGVHTFPAVLQSSGLYSLSSVVTVPSSSLGTKTYTCNVDHKPSNTKVDKRVESKYGPPCPPCPAPEAAGGPSVFLFPPKPKDTLMISRTPEVTCVVVDVSQEDPEVQFNWYVDGVEVHNAKTKPREEQFNSTYRVVSVLTVLHQDWLNGKEYKCKVSNKGLPSSIEKTISKAKGQPREPQVYTLPPSQEEMTKNQVSLTCLVKGFYPSDIAVEWESNGQPENNYKTTPPVLDSDGSFLLYSKLTVDKSRWQEGNVFSCSVMHEALHNHYTQKSLSLSLGK
light 2: QAVVTQEPSLTVSPGGTVTLTCRSSTGAVTTSNYANWVQQKPGQAPRGLIGGTNKRAPGTPARFSGSLLGGKAALTLSGAQPEDEAEYYCALWYSNLWVFGGGTKLTVLGQPKAAPSVTLFPPSSEELQANKATLVCLISDFYPGAVTVAWKADSSPVKAGVETTTPSKQSNNKYAASSYLSLTPEQWKSHRSYSCQVTHEGSTVEKTVAPTECS
With B1, the “EC50 of T cell-mediated cytotoxicity, target HL-60, HS-5 stroma, no anti-CD44, 48 h” value was determined as 142 pM; the “EC50 of T cell-mediated cytotoxicity, target HL-60, HS-5 stroma, with anti-CD44, 48 h” value was found to be 76.2 pM; the “EC50 of T cell-mediated cytotoxicity, target HL-60, no stroma, no anti-CD44, 48 h” value came to 86.8 pM; the “EC50 of T cell-mediated cytotoxicity, target HL-60, no stroma, with anti-CD44, 48 h” value was determined as 80.8 pM. The “EC50 of T cell-mediated cytotoxicity, target KG-1, HS-5 stroma, no anti-CD44, 48 h” value worked out at 31.9 pM; the “EC50 of T cell-mediated cytotoxicity, target KG-1, HS-5 stroma, with anti-CD44, 48 h” value was found to be 26.5 pM; the “EC50 of T cell-mediated cytotoxicity, target KG-1, no stroma, no anti-CD44, 48 h” value stood at 2.8 pM; the “EC50 of T cell-mediated cytotoxicity, target KG-1, no stroma, with anti-CD44, 48 h” value worked out at 0.9 pM. The “EC50 of T cell-mediated cytotoxicity, target MOLM-13, HS-5 stroma, no anti-CD44, 48 h” value came out at 26.2 pM; the “EC50 of T cell-mediated cytotoxicity, target MOLM-13, HS-5 stroma, with anti-CD44, 48 h” value is 153 pM; the “EC50 of T cell-mediated cytotoxicity, target MOLM-13, no stroma, no anti-CD44, 48 h” value turned out to be 36.2 pM; the “EC50 of T cell-mediated cytotoxicity, target MOLM-13, no stroma, with anti-CD44, 48 h” value was found to be 12.5 pM. Besides, the “EC50 of T cell-mediated cytotoxicity, target MV4-11, HS-5 stroma, no anti-CD44, 48 h” value was 5.7 pM; the “EC50 of T cell-mediated cytotoxicity, target MV4-11, HS-5 stroma, with anti-CD44, 48 h” value stood at 2.5 pM; the “EC50 of T cell-mediated cytotoxicity, target MV4-11, no stroma, no anti-CD44, 48 h” value amounted to 5.6 pM; the “EC50 of T cell-mediated cytotoxicity, target MV4-11, no stroma, with anti-CD44, 48 h” value was 2.6 pM. Also, the “EC50 of T cell-mediated cytotoxicity, target SKNO-1, HS-5 stroma, no anti-CD44, 48 h” value was found to be 75.7 pM; the “EC50 of T cell-mediated cytotoxicity, target SKNO-1, HS-5 stroma, with anti-CD44, 48 h” value stood at 108 pM; the “EC50 of T cell-mediated cytotoxicity, target SKNO-1, no stroma, no anti-CD44, 48 h” value was 11.1 pM; the “EC50 of T cell-mediated cytotoxicity, target SKNO-1, no stroma, with anti-CD44, 48 h” value was 7.7 pM.
